Each block holds one binder with its values, some of them ahead of it. Numbered stars: 1 amine (or outer) side, 2 acyl side, 3 side chain; on linkers, the order of the positions; unused ones are H or OH. Bridge positions count the residues as written; N and C are the ends. * marks the point of attachment. C20 diacid = O=C(O)CCCCCCCCCCCCCCCCCCC(=O)*; γGlu = O=C(O)[C@H](CCC(=O)[*:2])N[*:1]
Assays:
[1] = target: T1, human calcitonin receptor (human, UniProt P30988 25-474); experiment: IC50 at hCTR divided by IC50 at hAmylin-R (reference)
T1 construct: whole, on cells; Membranes of a BHK tk'ts 13 cell line stably transfected with the human calcitonin receptor; also called hCTR; hCT
T1 sequence (looked up): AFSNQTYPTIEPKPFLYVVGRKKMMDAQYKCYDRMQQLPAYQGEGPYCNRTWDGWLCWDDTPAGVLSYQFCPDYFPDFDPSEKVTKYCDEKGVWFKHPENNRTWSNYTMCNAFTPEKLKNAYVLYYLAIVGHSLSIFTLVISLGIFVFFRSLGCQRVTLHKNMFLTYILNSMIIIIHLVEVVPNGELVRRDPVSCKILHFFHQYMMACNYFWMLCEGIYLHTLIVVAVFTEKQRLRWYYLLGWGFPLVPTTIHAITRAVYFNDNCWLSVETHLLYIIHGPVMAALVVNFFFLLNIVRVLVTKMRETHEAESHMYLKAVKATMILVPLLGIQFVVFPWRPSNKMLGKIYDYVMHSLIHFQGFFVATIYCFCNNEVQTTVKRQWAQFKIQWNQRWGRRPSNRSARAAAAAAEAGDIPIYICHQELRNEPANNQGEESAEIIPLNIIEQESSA
Procedure, shortened: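 Scintillation proximity competition binding on cell membranes at 35 ng/μL with SPA beads, in 50 mM Hepes pH 7.4, 1 mM CaCl2, 5 mM MgCl₂, 0.1% OA, 0.02% Tween20. Incubated 120 min at 25° C with shaking. IC₅₀ from one-site competition fit.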

rat calcitonin receptor [2] = target: T2, rat calcitonin receptor (rat, UniProt P32214 25-516); experiment: IC50 at rCTR divided by IC50 at rAmylin-R (reference)
T2 construct: whole, on cells; Membranes of BHK tk'ts 13 cells transiently transfected with the rat calcitonin receptor; also called rCTR; rat calcitonin (a) receptor
T2 sequence (looked up): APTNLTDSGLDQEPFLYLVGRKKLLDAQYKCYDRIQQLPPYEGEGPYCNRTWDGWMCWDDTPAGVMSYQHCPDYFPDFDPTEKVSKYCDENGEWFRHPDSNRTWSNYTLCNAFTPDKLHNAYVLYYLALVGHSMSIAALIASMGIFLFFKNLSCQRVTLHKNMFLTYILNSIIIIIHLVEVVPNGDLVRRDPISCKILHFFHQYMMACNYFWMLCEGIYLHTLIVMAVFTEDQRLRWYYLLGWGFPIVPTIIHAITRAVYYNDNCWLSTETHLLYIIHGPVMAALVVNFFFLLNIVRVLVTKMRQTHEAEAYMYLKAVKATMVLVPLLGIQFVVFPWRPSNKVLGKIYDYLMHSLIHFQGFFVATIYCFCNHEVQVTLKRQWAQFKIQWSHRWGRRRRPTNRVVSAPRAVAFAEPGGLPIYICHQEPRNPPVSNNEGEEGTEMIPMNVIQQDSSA

rat calcitonin receptor [3] = target: T2, rat calcitonin receptor; experiment: SPA competition vs 125I-calcitonin, membranes with rat CTR (Assay VIII)
[4] = target: T3, rat amylin receptor (rat calcitonin receptor + rat RAMP 3) (rat, UniProt P32214 25-516; Q9JJ73 23-147); experiment: SPA competition vs 125I-rat amylin, membranes with rat CTR + rat RAMP3 (Assay VI)
T3 construct: whole, on cells; Membranes of BHK tk'ts 13 cells transiently transfected with the rat calcitonin receptor and rat RAMP 3; also called rAmylin-R; rat amylin 3(a) receptor
T3 sequence (looked up) 1: T2 sequence (looked up)
T3 sequence (looked up) 2: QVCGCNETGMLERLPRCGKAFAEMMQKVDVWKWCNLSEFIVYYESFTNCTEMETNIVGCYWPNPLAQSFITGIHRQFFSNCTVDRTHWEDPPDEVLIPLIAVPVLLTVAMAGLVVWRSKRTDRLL

Ratio hCT/hAmylin binding [1]: 16
Ratio rCT/rAmylin binding (rat calcitonin receptor [2]): 42.8
IC50 (rat calcitonin receptor [3]): 26.5 nM
IC50 [4]: 0.619 nM
B1: N^α1-[(4S)-4-carboxy-4-(19-carboxynonadecanoylamino)butanoyl]-[Glu14,Arg17,Pro21,Pro27,Pro31]-h-amylin (peptide)
peptide: {C20 diacid-γGlu}-KCNTATCATQRLAEFLRHSSPNFGAIPSSTPVGSNTY-NH2
modifications: disulfide 2-7
SMILES: CC[C@H](C)[C@H](NC(=O)[C@H](C)NC(=O)CNC(=O)[C@H](Cc1ccccc1)NC(=O)[C@H](CC(N)=O)NC(=O)[C@@H]1CCCN1C(=O)[C@H](CO)NC(=O)[C@H](CO)NC(=O)[C@H](Cc1c[nH]cn1)NC(=O)[C@H](CCCNC(=N)N)NC(=O)[C@H](CC(C)C)NC(=O)[C@H](Cc1ccccc1)NC(=O)[C@H](CCC(=O)O)NC(=O)[C@H](C)NC(=O)[C@H](CC(C)C)NC(=O)[C@H](CCCNC(=N)N)NC(=O)[C@H](CCC(N)=O)NC(=O)[C@@H](NC(=O)[C@H](C)NC(=O)[C@@H]1CSSC[C@H](NC(=O)[C@H](CCCCN)NC(=O)CC[C@H](NC(=O)CCCCCCCCCCCCCCCCCCC(=O)O)C(=O)O)C(=O)N[C@@H](CC(N)=O)C(=O)N[C@@H]([C@@H](C)O)C(=O)N[C@@H](C)C(=O)N[C@@H]([C@@H](C)O)C(=O)N1)[C@@H](C)O)C(=O)N1CCC[C@H]1C(=O)N[C@@H](CO)C(=O)N[C@@H](CO)C(=O)N[C@H](C(=O)N1CCC[C@H]1C(=O)N[C@H](C(=O)NCC(=O)N[C@@H](CO)C(=O)N[C@@H](CC(N)=O)C(=O)N[C@H](C(=O)N[C@@H](Cc1ccc(O)cc1)C(N)=O)[C@@H](C)O)C(C)C)[C@@H](C)O
notes: modifications are with respect to human amylin; also called compound 31

Ratio hCT/hAmylin binding [1]: 12.3
Ratio rCT/rAmylin binding (rat calcitonin receptor [2]): 28.5
IC50 (rat calcitonin receptor [3]): 62.5 nM
IC50 [4]: 2.19 nM
B2: N^α1N^α1-[(4S)-4-carboxy-4-(19-carboxynonadecanoylamino)butanoyl]-[Glu14,Arg17,Pro21,Pro27,Glu35]-h-amylin (peptide)
peptide: {C20 diacid-γGlu}-KCNTATCATQRLAEFLRHSSPNFGAIPSSTNVGSETY-NH2
modifications: disulfide 2-7
SMILES: CC[C@H](C)[C@H](NC(=O)[C@H](C)NC(=O)CNC(=O)[C@H](Cc1ccccc1)NC(=O)[C@H](CC(N)=O)NC(=O)[C@@H]1CCCN1C(=O)[C@H](CO)NC(=O)[C@H](CO)NC(=O)[C@H](Cc1c[nH]cn1)NC(=O)[C@H](CCCNC(=N)N)NC(=O)[C@H](CC(C)C)NC(=O)[C@H](Cc1ccccc1)NC(=O)[C@H](CCC(=O)O)NC(=O)[C@H](C)NC(=O)[C@H](CC(C)C)NC(=O)[C@H](CCCNC(=N)N)NC(=O)[C@H](CCC(N)=O)NC(=O)[C@@H](NC(=O)[C@H](C)NC(=O)[C@@H]1CSSC[C@H](NC(=O)[C@H](CCCCN)NC(=O)CC[C@H](NC(=O)CCCCCCCCCCCCCCCCCCC(=O)O)C(=O)O)C(=O)N[C@@H](CC(N)=O)C(=O)N[C@@H]([C@@H](C)O)C(=O)N[C@@H](C)C(=O)N[C@@H]([C@@H](C)O)C(=O)N1)[C@@H](C)O)C(=O)N1CCC[C@H]1C(=O)N[C@@H](CO)C(=O)N[C@@H](CO)C(=O)N[C@H](C(=O)N[C@@H](CC(N)=O)C(=O)N[C@H](C(=O)NCC(=O)N[C@@H](CO)C(=O)N[C@@H](CCC(=O)O)C(=O)N[C@H](C(=O)N[C@@H](Cc1ccc(O)cc1)C(N)=O)[C@@H](C)O)C(C)C)[C@@H](C)O
notes: modifications are with respect to human amylin; also called compound 22

Ratio hCT/hAmylin binding [1]: 23.6
Ratio rCT/rAmylin binding (rat calcitonin receptor [2]): 36.1
IC50 (rat calcitonin receptor [3]): 114 nM
IC50 [4]: 3.14 nM
B3: N^α1-[(4S)-4-carboxy-4-(19-carboxynonadecanoylamino)butanoyl]-[His14,Arg17,Pro21,Pro27,Glu35]-h-amylin (peptide)
peptide: {C20 diacid-γGlu}-KCNTATCATQRLAHFLRHSSPNFGAIPSSTNVGSETY-NH2
modifications: disulfide 2-7
SMILES: CC[C@H](C)[C@H](NC(=O)[C@H](C)NC(=O)CNC(=O)[C@H](Cc1ccccc1)NC(=O)[C@H](CC(N)=O)NC(=O)[C@@H]1CCCN1C(=O)[C@H](CO)NC(=O)[C@H](CO)NC(=O)[C@H](Cc1c[nH]cn1)NC(=O)[C@H](CCCNC(=N)N)NC(=O)[C@H](CC(C)C)NC(=O)[C@H](Cc1ccccc1)NC(=O)[C@H](Cc1c[nH]cn1)NC(=O)[C@H](C)NC(=O)[C@H](CC(C)C)NC(=O)[C@H](CCCNC(=N)N)NC(=O)[C@H](CCC(N)=O)NC(=O)[C@@H](NC(=O)[C@H](C)NC(=O)[C@@H]1CSSC[C@H](NC(=O)[C@H](CCCCN)NC(=O)CC[C@H](NC(=O)CCCCCCCCCCCCCCCCCCC(=O)O)C(=O)O)C(=O)N[C@@H](CC(N)=O)C(=O)N[C@@H]([C@@H](C)O)C(=O)N[C@@H](C)C(=O)N[C@@H]([C@@H](C)O)C(=O)N1)[C@@H](C)O)C(=O)N1CCC[C@H]1C(=O)N[C@@H](CO)C(=O)N[C@@H](CO)C(=O)N[C@H](C(=O)N[C@@H](CC(N)=O)C(=O)N[C@H](C(=O)NCC(=O)N[C@@H](CO)C(=O)N[C@@H](CCC(=O)O)C(=O)N[C@H](C(=O)N[C@@H](Cc1ccc(O)cc1)C(N)=O)[C@@H](C)O)C(C)C)[C@@H](C)O
notes: modifications are with respect to human amylin; also called compound 30

Ratio hCT/hAmylin binding [1]: 3.9
Ratio rCT/rAmylin binding (rat calcitonin receptor [2]): 12.6
IC50 (rat calcitonin receptor [3]): 28.9 nM
IC50 [4]: 2.29 nM
B4: N^α1-[(4S)-4-carboxy-4-(19-carboxynonadecanoylamino)butanoyl]-[Glu14,Arg17,Pro21,Pro28,Glu35]-h-amylin (peptide)
peptide: {C20 diacid-γGlu}-KCNTATCATQRLAEFLRHSSPNFGAILPSTNVGSETY-NH2
modifications: disulfide 2-7
notes: modifications are with respect to human amylin; also called compound 33

Ratio hCT/hAmylin binding [1]: 10.9
Ratio rCT/rAmylin binding (rat calcitonin receptor [2]): 34
IC50 (rat calcitonin receptor [3]): 5.98 nM
IC50 [4]: 0.176 nM
B5: N^α1-[(4S)-4-carboxy-4-(19-carboxynonadecanoylamino)butanoyl]-[Glu14,Arg17,Pro21,Pro27,Pro34]-h-amylin (peptide)
peptide: {C20 diacid-γGlu}-KCNTATCATQRLAEFLRHSSPNFGAIPSSTNVGPNTY-NH2
modifications: disulfide 2-7
SMILES: CC[C@H](C)[C@H](NC(=O)[C@H](C)NC(=O)CNC(=O)[C@H](Cc1ccccc1)NC(=O)[C@H](CC(N)=O)NC(=O)[C@@H]1CCCN1C(=O)[C@H](CO)NC(=O)[C@H](CO)NC(=O)[C@H](Cc1c[nH]cn1)NC(=O)[C@H](CCCNC(=N)N)NC(=O)[C@H](CC(C)C)NC(=O)[C@H](Cc1ccccc1)NC(=O)[C@H](CCC(=O)O)NC(=O)[C@H](C)NC(=O)[C@H](CC(C)C)NC(=O)[C@H](CCCNC(=N)N)NC(=O)[C@H](CCC(N)=O)NC(=O)[C@@H](NC(=O)[C@H](C)NC(=O)[C@@H]1CSSC[C@H](NC(=O)[C@H](CCCCN)NC(=O)CC[C@H](NC(=O)CCCCCCCCCCCCCCCCCCC(=O)O)C(=O)O)C(=O)N[C@@H](CC(N)=O)C(=O)N[C@@H]([C@@H](C)O)C(=O)N[C@@H](C)C(=O)N[C@@H]([C@@H](C)O)C(=O)N1)[C@@H](C)O)C(=O)N1CCC[C@H]1C(=O)N[C@@H](CO)C(=O)N[C@@H](CO)C(=O)N[C@H](C(=O)N[C@@H](CC(N)=O)C(=O)N[C@H](C(=O)NCC(=O)N1CCC[C@H]1C(=O)N[C@@H](CC(N)=O)C(=O)N[C@H](C(=O)N[C@@H](Cc1ccc(O)cc1)C(N)=O)[C@@H](C)O)C(C)C)[C@@H](C)O
notes: modifications are with respect to human amylin; also called compound 32

Reference: patent US20140087995A1 (published 2014)
